Reference: US20080081783A1 (published 2008)
Where two headings read alike, the source gives them in different places. Bridge positions count the residues as written; N and C are the ends. Square brackets hold non-standard residues; d marks the D form. Ends that are not written are not given here. 1Nal = N[C@@H](Cc1cccc2ccccc12)C(=O)O; Sar = CNCC(=O)O

How the values were obtained:
[1] = biological target: recombinant EPO-R (produced in Chinese Hamster Ovary cells as a fusion protein to a portion of the human … (human, UniProt P05187 490-506)); test: competitive binding; the column head says only 'IC50'; taken as the AlphaQuest bead proximity assay against the biotinylated tracer SEQ ID NO: 4, by paragraph 206
[2] = biological target: T1, chimeric receptor comprising the extra-cellular portion of the human EPO receptor to the intra-cellular … (human, UniProt P19235 25-250; Q99062 651-836, limits assumed); test: cell-based or functional assay
T1 sequence (looked up): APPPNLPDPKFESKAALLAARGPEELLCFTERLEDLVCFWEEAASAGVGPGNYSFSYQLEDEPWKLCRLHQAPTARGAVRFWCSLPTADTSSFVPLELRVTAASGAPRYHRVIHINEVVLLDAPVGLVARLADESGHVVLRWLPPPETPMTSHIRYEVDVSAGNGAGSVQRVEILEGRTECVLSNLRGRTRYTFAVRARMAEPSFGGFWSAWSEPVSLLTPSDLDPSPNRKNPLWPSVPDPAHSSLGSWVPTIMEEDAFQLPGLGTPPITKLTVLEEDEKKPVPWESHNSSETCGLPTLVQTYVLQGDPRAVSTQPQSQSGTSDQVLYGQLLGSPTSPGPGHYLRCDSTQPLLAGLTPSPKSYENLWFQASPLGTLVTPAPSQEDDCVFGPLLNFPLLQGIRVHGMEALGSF

[3] = biological target: T2, human EPO-R (human, UniProt P19235 25-508); test: cell-based or functional assay
T2 sequence (looked up): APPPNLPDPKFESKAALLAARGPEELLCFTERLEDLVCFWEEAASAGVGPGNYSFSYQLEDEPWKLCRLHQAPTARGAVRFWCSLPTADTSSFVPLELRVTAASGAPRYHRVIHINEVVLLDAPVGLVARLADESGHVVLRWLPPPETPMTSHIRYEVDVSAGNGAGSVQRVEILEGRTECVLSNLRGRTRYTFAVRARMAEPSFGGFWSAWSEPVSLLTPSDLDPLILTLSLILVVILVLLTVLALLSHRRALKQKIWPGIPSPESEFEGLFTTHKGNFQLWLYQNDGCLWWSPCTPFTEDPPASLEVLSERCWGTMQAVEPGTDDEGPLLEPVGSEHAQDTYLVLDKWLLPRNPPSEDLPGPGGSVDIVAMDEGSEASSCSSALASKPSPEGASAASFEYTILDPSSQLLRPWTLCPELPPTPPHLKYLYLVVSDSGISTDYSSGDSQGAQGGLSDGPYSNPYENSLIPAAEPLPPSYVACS

[4] = biological target: T3, Recombinant Human EPO R/Fc Chimera (human, UniProt P19235 25-250); test: radioligand competition; competitor 125I-EPO; EPO R/Fc chimera captured on protein-G Sepharose
T3 construct: extracellular domain; Bought from R&D Systems, catalog number 963-ER; also called recombinant EPOr extracellular domain fused to the Fc portion of human IgG1; recombinant erythropoietin receptor; not shown: Fc portion of human IgG1
T3 sequence (looked up): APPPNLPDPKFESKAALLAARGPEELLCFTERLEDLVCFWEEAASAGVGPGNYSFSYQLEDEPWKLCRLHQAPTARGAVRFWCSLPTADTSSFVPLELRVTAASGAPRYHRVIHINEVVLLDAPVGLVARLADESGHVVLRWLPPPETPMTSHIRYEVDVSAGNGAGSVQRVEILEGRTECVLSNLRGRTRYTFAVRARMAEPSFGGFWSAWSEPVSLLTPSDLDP

[5] = biological target: T1, chimeric receptor comprising the …; test: cell-based or functional assay; remark: listed apart in the source
[6] = biological target: T2, human EPO-R; test: cell-based or functional assay; remark: listed apart in the source

B1: Peptide II (SEQ ID NO: 3) (peptide)
peptide: Ac-XGLYACHMGPIT[1Nal]VCQPLR[Sar]
modifications: disulfide 6-15 (inferred); not fully specified (residue 1); printed as (AcG)GLYACHMGPIT(1-nal)VCQPLR(MeG); also: homodimer, C-termini joined to alpha- and epsilon-amino groups of a lysine linker, PEG attached through a spacer, linkage and PEG size not readable
notes: What sets it apart from Peptide III (PEG linkage or size) stands only in drawing CHEM-US-00080
B1 was tested, and the IC50 [1] was 0.11 nM.

B2: Peptide I (SEQ ID NO: 2) (peptide)
peptide: Ac-XGLYACHMGPIT[1Nal]VCQPLR[Sar]K
modifications: disulfide 6-15; not fully specified (residues 1, 21); printed as (AcG)GLYACHMGPIT(1-nal)VCQPLR(MeG)K; also: homodimer joined by a branched tertiary amide linker on the epsilon-N of Lys21, PEG attached through a spacer, exact linker and PEG structure not readable
notes: The exact structure (linker, spacer, PEG size, carbamate or amide linkage) stands only in drawing CHEM-US-00099, which is not readable here
B2 was tested, and the “Reporter EC50” value [2] was 0.195 nM, the “Proliferation EC50” value [3] was 0.165 nM and the IC50 [4] was 0.111 nM.

B3: Peptide III (SEQ ID NO: 3) (peptide)
peptide: Ac-XGLYACHMGPIT[1Nal]VCQPLR[Sar]
modifications: disulfide 6-15; not fully specified (residue 1); printed as (AcG)GLYACHMGPIT(1-nal)VCQPLR(MeG); also: homodimer, C-termini joined to alpha- and epsilon-amino groups of a lysine linker, PEG attached through a spacer, linkage and PEG size not readable
In the case of B3, the “Reporter EC50” value [5] is reported as 0.15 nM and the “Proliferation EC50” value [6] is reported as 72 nM.
